# From US20250026861A1 (INVENRA, published 2025)
# Assays:
# CTLA4 = target: T1, CTLA4 (UniProt P16410 36-161, limits assumed); assay: Octet biolayer interferometry; antigen immobilized, B-Body as analyte
# T1 construct: Immobilized antigen in the Octet assays
# Excerpt: In each instance, the antigen is immobilized and the B-Body is the analyte.
# CD3 = target: T2, CD3; assay: BLI (Octet), two-fold serial dilution (200-12.5 nM) of the construct
# T2 chain: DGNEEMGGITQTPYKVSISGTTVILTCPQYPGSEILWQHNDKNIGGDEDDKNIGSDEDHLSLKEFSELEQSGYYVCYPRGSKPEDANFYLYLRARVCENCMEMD
# T1 sequence (P16410 36-161 limits assumed): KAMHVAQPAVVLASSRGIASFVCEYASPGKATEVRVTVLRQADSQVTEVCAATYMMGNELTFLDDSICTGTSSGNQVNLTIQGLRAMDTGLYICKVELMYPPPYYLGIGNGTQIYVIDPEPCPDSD
Binder,binding result (CTLA4),Kd (CD3),koff (CD3),kon (CD3)
bivalent bispecific B-Body “BC1” (bispecific antibody) chain 1: not shown chain 2: EVQLVESGGGLVQPGGSLRLSCAASGFTFSDYDIHWVRQAPGKGLEWVGDITPYDGTTNYADSVKGRFTISADTSKNTAYLQMNSLRAEDTAVYYCARLVGEIATGFDYWGQGTLVTVSSASPREPQVYTDPPSRDELTKNQVSLTCLVKGFYPSDIAVEWESNGQPENNYKTTPPVLDSDGSFFLYSKLTVDKSRWQQGNVFSCSVMHEALHNHYTQKSLSLSGEC chain 3: not shown chain 4: QVQLVESGGGVVQPGRSLRLDCKASGITFSNSGMHWVRQAPGKGLEWVAVIWYDGSKRYYADSVKGRFTISRDNSKNTLFLQMNSLRAEDTAVYYCATNDDYWGQGTLVTVSSASTKGPSVFPLAPSSKSTSGGTAALGCLVKDYFPEPVTVSWNSGALTSGVHTFPAVLQSSGLYSLSSVVTVPSSSLGTQTYICNVNHKPSNTKVDKKVEPPKSC,no binding,–,–,–
"non-mutagenized SP34-89 monovalent B-Body (bispecific antibody, V domains shown, VL and VH cloned into one arm of a 1×1 BC1 B-Body; also called SP34-89 VL-WT/SP34-89 VH-WT) VH: EVQLVESGGGLVQPGGSLRLSCAASGFTFNTYAMNWVRQAPGKGLEWVARIRSKYNNYATYYADSVKGRFSISRDDSKNTAYLQMNSLRAEDTAVYYCVRHGNFGNSYVSWFAYWGQGTLVTV VL: QAVVTQEPSLTVSPGGTVTLTCRSSTGAVTTSNYANWVQQKPGQAPRGLIGGTNKRAPWTPARFSGSLLGGKAALTITGAQAEDEADYYCALWYSNLWVFGGGTKLTVL",–,23 nM,0.0071 s⁻¹,300000 M⁻¹ s⁻¹
